{"source": "paper PMC2731490", "about": "(Nature, 2009)", "molecules": {"B1": {"name": "wild-type RecA (natural protein, E. coli, UniProt P0A7G6 1-353, looked up)", "chain": "MAIDENKQKALAAALGQIEKQFGKGSIMRLGEDRSMDVETISTGSLSLDIALGAGGLPMGRIVEIYGPESSGKTTLTLQVIAAAQREGKTCAFIDAEHALDPIYARKLGVDIDNLLCSQPDTGEQALEICDALARSGAVDVIVVDSVAALTPKAEIEGEIGDSHMGLAARMMSQAMRKLAGNLKQSNTLLIFINQIRMKIGVMFGNPETTTGGNALKFYASVRLDIRRIGAVKEGENVVGSETRVKVVKNKIAAPFKQAEFQILYGEGINFYGELVDLGVKEKLIEKAGAWYSYKGEKIGQGKANATAWLKDNPETAKEIEKKVRELLLSNPNSTPDFSVDDSEGVAETNEDF"}, "B2": {"name": "UmuD′ (natural protein, E. coli, UniProt P0AG11 25-139, looked up)", "chain": "GFPSPAADYVEQRIDLNQLLIQHPSATYFVKASGDSMIDGGISDGDLLIVDSAITASHGDIVIAAVDGEFTVKKLQLRPTVQLIPMNSAYSPITISSEDTLDVFGVVIHVVKAMR"}}, "key": {"[1]": {"molecular_target": "T1, pol V Mut (UmuD′2C–RecA), wild-type RecA (Escherichia coli, UniProt P0A7G6)", "T1 sequence (P0A7G6 2-353)": "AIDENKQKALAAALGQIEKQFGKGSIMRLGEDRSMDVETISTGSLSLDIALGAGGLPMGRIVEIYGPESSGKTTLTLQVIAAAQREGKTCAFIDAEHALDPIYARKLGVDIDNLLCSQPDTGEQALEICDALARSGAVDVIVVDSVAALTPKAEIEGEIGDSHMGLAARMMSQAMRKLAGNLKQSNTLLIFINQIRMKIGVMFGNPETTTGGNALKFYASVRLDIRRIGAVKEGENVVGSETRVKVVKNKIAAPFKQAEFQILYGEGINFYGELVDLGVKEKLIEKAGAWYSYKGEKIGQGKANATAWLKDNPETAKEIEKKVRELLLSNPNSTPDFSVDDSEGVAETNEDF", "T1 sequence (P04152 1-422 partner)": "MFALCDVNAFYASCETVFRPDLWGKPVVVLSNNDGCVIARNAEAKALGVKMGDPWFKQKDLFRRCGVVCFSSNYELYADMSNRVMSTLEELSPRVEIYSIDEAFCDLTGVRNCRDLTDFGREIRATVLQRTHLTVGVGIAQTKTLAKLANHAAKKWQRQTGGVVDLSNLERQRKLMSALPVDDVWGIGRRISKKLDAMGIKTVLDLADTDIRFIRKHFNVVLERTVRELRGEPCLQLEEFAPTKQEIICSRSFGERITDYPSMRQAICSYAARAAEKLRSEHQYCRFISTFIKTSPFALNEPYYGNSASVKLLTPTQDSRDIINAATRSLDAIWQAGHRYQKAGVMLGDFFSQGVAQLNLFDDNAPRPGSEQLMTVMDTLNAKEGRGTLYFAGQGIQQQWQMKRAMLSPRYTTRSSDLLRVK", "T1 sequence (P0AG11 25-139 partner limits assumed)": "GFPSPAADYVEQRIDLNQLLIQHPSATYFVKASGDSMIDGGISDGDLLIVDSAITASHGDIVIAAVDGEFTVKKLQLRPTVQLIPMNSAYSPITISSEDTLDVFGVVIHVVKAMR", "experiment": "hairpin primer/template extension, […]-labelled DNA", "assay_type": "biochemical", "conditions": "nucleotide added after activation; RecA* absent; hydrolysis not needed"}, "[2]": {"molecular_target": "T2, DNA polymerase V (UmuD′2C) (E. coli, UniProt P04152 1-422; P0AG11 25-139)", "T2 sequence (looked up) 1": "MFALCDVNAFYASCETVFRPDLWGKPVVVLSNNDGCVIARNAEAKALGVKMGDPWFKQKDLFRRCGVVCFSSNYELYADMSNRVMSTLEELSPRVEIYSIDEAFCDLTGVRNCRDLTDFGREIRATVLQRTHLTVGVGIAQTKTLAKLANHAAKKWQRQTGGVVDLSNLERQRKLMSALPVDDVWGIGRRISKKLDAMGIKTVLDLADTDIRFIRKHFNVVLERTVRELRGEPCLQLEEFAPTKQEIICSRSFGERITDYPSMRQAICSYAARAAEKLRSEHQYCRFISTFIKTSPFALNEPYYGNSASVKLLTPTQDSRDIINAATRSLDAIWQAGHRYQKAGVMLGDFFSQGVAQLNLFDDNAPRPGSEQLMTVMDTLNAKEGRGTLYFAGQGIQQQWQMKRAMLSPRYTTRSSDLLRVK", "T2 sequence (looked up) 2": "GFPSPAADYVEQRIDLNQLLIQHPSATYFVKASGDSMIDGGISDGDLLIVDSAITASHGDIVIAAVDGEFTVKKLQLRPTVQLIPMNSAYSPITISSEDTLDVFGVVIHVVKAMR"}, "[3]": {"molecular_target": "T3, UmuC (E. coli, UniProt P04152 1-422)", "T3 sequence (looked up)": "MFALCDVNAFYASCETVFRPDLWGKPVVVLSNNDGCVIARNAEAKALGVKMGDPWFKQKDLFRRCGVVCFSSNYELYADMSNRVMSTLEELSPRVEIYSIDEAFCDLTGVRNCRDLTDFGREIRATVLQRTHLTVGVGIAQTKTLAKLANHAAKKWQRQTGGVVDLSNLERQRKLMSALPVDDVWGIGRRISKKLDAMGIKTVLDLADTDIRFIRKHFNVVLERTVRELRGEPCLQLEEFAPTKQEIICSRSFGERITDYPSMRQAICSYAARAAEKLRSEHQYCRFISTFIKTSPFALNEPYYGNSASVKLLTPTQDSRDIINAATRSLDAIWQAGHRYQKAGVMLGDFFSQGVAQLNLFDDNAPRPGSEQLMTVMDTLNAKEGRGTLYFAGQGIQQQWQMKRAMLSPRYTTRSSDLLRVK", "experiment": "SEC-MALS"}}}
{"molecule": "Nc1ncnc2c1ncn2[C@@H]1O[C@H](COP(=O)(O)OP(=O)(O)OP(=O)(O)O)[C@@H](O)[C@H]1O", "note": "[ATP]", "values": [{"measurement": "hairpin primer/template extension, 32P-labelled DNA", "setting": "[1]", "result": "pol V Mut activated with wild-type RecA* is inactive in the absence of added ATP or ATPγS"}]}
{"molecule": "B1", "values": [{"measurement": "stoichiometry N", "setting": "[2]", "result": 1, "unit": "RecA per UmuC per UmuD′2"}]}
{"molecule": "B2", "values": [{"measurement": "binding result", "setting": "[3]", "result": "binds"}]}
